Measured values: patent US20140087995A1 (published 2014)
Numbered stars: 1 amine (or outer) side, 2 acyl side, 3 side chain; on linkers, the order of the positions; unused ones are H or OH. Bridge positions count the residues as written; N and C are the ends. Side chains are listed from the residue outwards. Ends that are not written are not given here. * marks the point of attachment. C20 diacid = O=C(O)CCCCCCCCCCCCCCCCCCC(=O)*; γGlu = O=C(O)[C@H](CCC(=O)[*:2])N[*:1]

Key:
[1] = target: T1, human calcitonin receptor (human, UniProt P30988 25-474); assay: ratio of IC50 on human calcitonin receptor to IC50 on human amylin receptor (reference m42), SPA competition
T1 construct: whole, on cells; Membranes of stably transfected cells; also called hCTR; hCT
T1 sequence (looked up): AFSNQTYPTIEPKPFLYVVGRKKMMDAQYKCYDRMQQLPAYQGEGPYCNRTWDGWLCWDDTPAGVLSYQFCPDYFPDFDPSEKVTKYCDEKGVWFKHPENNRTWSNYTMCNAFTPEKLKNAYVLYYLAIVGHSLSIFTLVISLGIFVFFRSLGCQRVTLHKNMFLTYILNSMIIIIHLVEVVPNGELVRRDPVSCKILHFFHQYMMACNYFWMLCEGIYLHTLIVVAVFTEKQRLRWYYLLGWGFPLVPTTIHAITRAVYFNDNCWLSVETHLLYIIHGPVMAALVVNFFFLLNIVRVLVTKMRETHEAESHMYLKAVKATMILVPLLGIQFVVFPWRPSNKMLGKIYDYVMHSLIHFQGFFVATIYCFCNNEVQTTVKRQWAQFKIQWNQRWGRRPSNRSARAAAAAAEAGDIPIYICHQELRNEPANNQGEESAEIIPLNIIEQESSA
In short: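 Scintillation proximity competition binding on cell membranes at 35 ng/μL with SPA beads, in 50 mM Hepes pH 7.4, 1 mM CaCl2, 5 mM MgCl₂, 0.1% OA, 0.02% Tween20. Incubated 120 min at 25° C with shaking. IC₅₀ from one-site competition fit.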

[2] = target: T2, rat calcitonin receptor (rat, UniProt P32214 25-516); assay: SPA competition with 125I-calcitonin on membranes of BHK tk'ts 13 cells with rat calcitonin receptor (Assay VIII)
T2 construct: whole, on cells; Membranes of transiently transfected BHK tk'ts 13 cells; also called rCTR; rat calcitonin (a) receptor
T2 sequence (looked up): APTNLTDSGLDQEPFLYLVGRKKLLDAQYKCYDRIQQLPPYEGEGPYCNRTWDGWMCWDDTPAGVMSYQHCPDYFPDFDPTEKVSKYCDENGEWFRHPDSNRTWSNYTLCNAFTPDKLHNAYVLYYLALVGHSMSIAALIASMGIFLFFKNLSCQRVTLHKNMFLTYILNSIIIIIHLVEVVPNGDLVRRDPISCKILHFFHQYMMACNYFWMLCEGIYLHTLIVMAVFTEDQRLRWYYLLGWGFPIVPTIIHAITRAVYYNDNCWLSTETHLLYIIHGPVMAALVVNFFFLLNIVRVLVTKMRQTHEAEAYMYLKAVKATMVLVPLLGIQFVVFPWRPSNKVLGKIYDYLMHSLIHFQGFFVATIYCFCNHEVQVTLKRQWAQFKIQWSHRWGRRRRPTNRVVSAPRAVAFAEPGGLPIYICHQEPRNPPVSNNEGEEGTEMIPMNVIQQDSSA

[3] = target: T3, rat amylin receptor (rat calcitonin receptor + rat RAMP 3) (rat, UniProt P32214 25-516; Q9JJ73 23-147); assay: SPA competition with 125I-rat amylin on membranes of BHK tk'ts 13 cells with rat calcitonin receptor + rat RAMP3 (Assay VI)
T3 construct: whole, on cells; Membranes of transiently transfected BHK tk'ts 13 cells; also called rAmylin-R; rat amylin 3(a) receptor
T3 sequence (looked up) 1: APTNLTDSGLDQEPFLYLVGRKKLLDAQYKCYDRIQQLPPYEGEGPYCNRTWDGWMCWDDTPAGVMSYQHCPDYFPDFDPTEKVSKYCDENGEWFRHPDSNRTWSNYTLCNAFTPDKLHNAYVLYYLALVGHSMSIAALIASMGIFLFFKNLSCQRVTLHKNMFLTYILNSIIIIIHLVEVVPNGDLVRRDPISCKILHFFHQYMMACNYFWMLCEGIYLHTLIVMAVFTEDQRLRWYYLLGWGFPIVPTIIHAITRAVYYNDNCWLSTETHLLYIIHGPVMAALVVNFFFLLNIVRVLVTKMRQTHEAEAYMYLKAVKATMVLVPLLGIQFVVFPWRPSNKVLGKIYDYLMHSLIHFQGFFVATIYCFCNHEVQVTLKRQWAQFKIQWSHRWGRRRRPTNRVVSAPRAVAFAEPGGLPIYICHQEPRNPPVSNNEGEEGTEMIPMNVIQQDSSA
T3 sequence (looked up) 2: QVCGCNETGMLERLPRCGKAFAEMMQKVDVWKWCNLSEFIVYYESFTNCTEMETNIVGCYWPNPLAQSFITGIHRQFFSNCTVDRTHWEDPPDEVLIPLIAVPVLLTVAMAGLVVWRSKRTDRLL

[4] = target: T2, rat calcitonin receptor; assay: ratio of IC50 on rat calcitonin receptor to IC50 on rat amylin receptor (reference m40)

B1: N^ε1-[(4S)-4-carboxy-4-[[(4S)-4-carboxy-4-(19-carboxynonadecanoylamino)butanoyl]amino]butanoyl]-[Glu14,Arg17,Pro21,Pro27,Arg34,Glu35]-h-amylin (peptide)
peptide: K([γGlu-γGlu-C20 diacid])CNTATCATQRLAEFLRHSSPNFGAIPSSTNVGRETY-NH2
modifications: disulfide 2-7; N-terminus assumed
SMILES: CC[C@H](C)[C@H](NC(=O)[C@H](C)NC(=O)CNC(=O)[C@H](Cc1ccccc1)NC(=O)[C@H](CC(N)=O)NC(=O)[C@@H]1CCCN1C(=O)[C@H](CO)NC(=O)[C@H](CO)NC(=O)[C@H](Cc1c[nH]cn1)NC(=O)[C@H](CCCNC(=N)N)NC(=O)[C@H](CC(C)C)NC(=O)[C@H](Cc1ccccc1)NC(=O)[C@H](CCC(=O)O)NC(=O)[C@H](C)NC(=O)[C@H](CC(C)C)NC(=O)[C@H](CCCNC(=N)N)NC(=O)[C@H](CCC(N)=O)NC(=O)[C@@H](NC(=O)[C@H](C)NC(=O)[C@@H]1CSSC[C@H](NC(=O)[C@@H](N)CCCCNC(=O)CC[C@H](NC(=O)CC[C@H](NC(=O)CCCCCCCCCCCCCCCCCCC(=O)O)C(=O)O)C(=O)O)C(=O)N[C@@H](CC(N)=O)C(=O)N[C@@H]([C@@H](C)O)C(=O)N[C@@H](C)C(=O)N[C@@H]([C@@H](C)O)C(=O)N1)[C@@H](C)O)C(=O)N1CCC[C@H]1C(=O)N[C@@H](CO)C(=O)N[C@@H](CO)C(=O)N[C@H](C(=O)N[C@@H](CC(N)=O)C(=O)N[C@H](C(=O)NCC(=O)N[C@@H](CCCNC(=N)N)C(=O)N[C@@H](CCC(=O)O)C(=O)N[C@H](C(=O)N[C@@H](Cc1ccc(O)cc1)C(N)=O)[C@@H](C)O)C(C)C)[C@@H](C)O
notes: Synthetic acylated analogue of human amylin
For B1, the “Ratio hCT/hAmylin binding” value [1] was 14.7, the IC50 [2] was 452 nM and the IC50 [3] was 2.86 nM. For the same binder, the “Ratio rCT/rAmylin binding” value [4] was 158.

B2: N^ε1-[(4S)-4-carboxy-4-[[(4S)-4-carboxy-4-(19-carboxynonadecanoylamino)butanoyl]amino]butanoyl]-[Glu14,Arg17,Pro21,Pro27,His34,Glu35]-h-amylin (peptide)
peptide: K([γGlu-γGlu-C20 diacid])CNTATCATQRLAEFLRHSSPNFGAIPSSTNVGHETY-NH2
modifications: disulfide 2-7; N-terminus assumed
SMILES: CC[C@H](C)[C@H](NC(=O)[C@H](C)NC(=O)CNC(=O)[C@H](Cc1ccccc1)NC(=O)[C@H](CC(N)=O)NC(=O)[C@@H]1CCCN1C(=O)[C@H](CO)NC(=O)[C@H](CO)NC(=O)[C@H](Cc1c[nH]cn1)NC(=O)[C@H](CCCNC(=N)N)NC(=O)[C@H](CC(C)C)NC(=O)[C@H](Cc1ccccc1)NC(=O)[C@H](CCC(=O)O)NC(=O)[C@H](C)NC(=O)[C@H](CC(C)C)NC(=O)[C@H](CCCNC(=N)N)NC(=O)[C@H](CCC(N)=O)NC(=O)[C@@H](NC(=O)[C@H](C)NC(=O)[C@@H]1CSSC[C@H](NC(=O)[C@@H](N)CCCCNC(=O)CC[C@H](NC(=O)CC[C@H](NC(=O)CCCCCCCCCCCCCCCCCCC(=O)O)C(=O)O)C(=O)O)C(=O)N[C@@H](CC(N)=O)C(=O)N[C@@H]([C@@H](C)O)C(=O)N[C@@H](C)C(=O)N[C@@H]([C@@H](C)O)C(=O)N1)[C@@H](C)O)C(=O)N1CCC[C@H]1C(=O)N[C@@H](CO)C(=O)N[C@@H](CO)C(=O)N[C@H](C(=O)N[C@@H](CC(N)=O)C(=O)N[C@H](C(=O)NCC(=O)N[C@@H](Cc1c[nH]cn1)C(=O)N[C@@H](CCC(=O)O)C(=O)N[C@H](C(=O)N[C@@H](Cc1ccc(O)cc1)C(N)=O)[C@@H](C)O)C(C)C)[C@@H](C)O
notes: as for B1
With B2 the “Ratio hCT/hAmylin binding” value [1] was 29.1, the IC50 [2] was 498 nM and the IC50 [3] was 3.14 nM. The “Ratio rCT/rAmylin binding” value [4] was 159.

B3: N^ε1-[(4S)-4-carboxy-4-[[(4S)-4-carboxy-4-(19-carboxynonadecanoylamino)butanoyl]amino]butanoyl]-[Glu14,Arg17,Pro21,Pro27,Pro34,Arg35]-h-amylin (peptide)
peptide: K([γGlu-γGlu-C20 diacid])CNTATCATQRLAEFLRHSSPNFGAIPSSTNVGPRTY-NH2
modifications: disulfide 2-7; N-terminus assumed
SMILES: CC[C@H](C)[C@H](NC(=O)[C@H](C)NC(=O)CNC(=O)[C@H](Cc1ccccc1)NC(=O)[C@H](CC(N)=O)NC(=O)[C@@H]1CCCN1C(=O)[C@H](CO)NC(=O)[C@H](CO)NC(=O)[C@H](Cc1c[nH]cn1)NC(=O)[C@H](CCCNC(=N)N)NC(=O)[C@H](CC(C)C)NC(=O)[C@H](Cc1ccccc1)NC(=O)[C@H](CCC(=O)O)NC(=O)[C@H](C)NC(=O)[C@H](CC(C)C)NC(=O)[C@H](CCCNC(=N)N)NC(=O)[C@H](CCC(N)=O)NC(=O)[C@@H](NC(=O)[C@H](C)NC(=O)[C@@H]1CSSC[C@H](NC(=O)[C@@H](N)CCCCNC(=O)CC[C@H](NC(=O)CC[C@H](NC(=O)CCCCCCCCCCCCCCCCCCC(=O)O)C(=O)O)C(=O)O)C(=O)N[C@@H](CC(N)=O)C(=O)N[C@@H]([C@@H](C)O)C(=O)N[C@@H](C)C(=O)N[C@@H]([C@@H](C)O)C(=O)N1)[C@@H](C)O)C(=O)N1CCC[C@H]1C(=O)N[C@@H](CO)C(=O)N[C@@H](CO)C(=O)N[C@H](C(=O)N[C@@H](CC(N)=O)C(=O)N[C@H](C(=O)NCC(=O)N1CCC[C@H]1C(=O)N[C@@H](CCCNC(=N)N)C(=O)N[C@H](C(=O)N[C@@H](Cc1ccc(O)cc1)C(N)=O)[C@@H](C)O)C(C)C)[C@@H](C)O
notes: Synthetic acylated analogue of human amylin; also called compound 110
B3 was tested, and the “Ratio hCT/hAmylin binding” value [1] was 53.6, the IC50 [2] was 38.3 nM and the IC50 [3] was 0.339 nM. For the same binder, the “Ratio rCT/rAmylin binding” value [4] was 113.

B4: N^ε1-[(4S)-4-carboxy-4-[[(4S)-4-carboxy-4-(19-carboxynonadecanoylamino)butanoyl]amino]butanoyl]-[Glu14,Arg17,Pro21,Pro27,Pro34,Glu35,Pro37]-h-amylin (peptide)
peptide: K([γGlu-γGlu-C20 diacid])CNTATCATQRLAEFLRHSSPNFGAIPSSTNVGPETP-NH2
modifications: disulfide 2-7; N-terminus assumed
SMILES: CC[C@H](C)[C@H](NC(=O)[C@H](C)NC(=O)CNC(=O)[C@H](Cc1ccccc1)NC(=O)[C@H](CC(N)=O)NC(=O)[C@@H]1CCCN1C(=O)[C@H](CO)NC(=O)[C@H](CO)NC(=O)[C@H](Cc1c[nH]cn1)NC(=O)[C@H](CCCNC(=N)N)NC(=O)[C@H](CC(C)C)NC(=O)[C@H](Cc1ccccc1)NC(=O)[C@H](CCC(=O)O)NC(=O)[C@H](C)NC(=O)[C@H](CC(C)C)NC(=O)[C@H](CCCNC(=N)N)NC(=O)[C@H](CCC(N)=O)NC(=O)[C@@H](NC(=O)[C@H](C)NC(=O)[C@@H]1CSSC[C@H](NC(=O)[C@@H](N)CCCCNC(=O)CC[C@H](NC(=O)CC[C@H](NC(=O)CCCCCCCCCCCCCCCCCCC(=O)O)C(=O)O)C(=O)O)C(=O)N[C@@H](CC(N)=O)C(=O)N[C@@H]([C@@H](C)O)C(=O)N[C@@H](C)C(=O)N[C@@H]([C@@H](C)O)C(=O)N1)[C@@H](C)O)C(=O)N1CCC[C@H]1C(=O)N[C@@H](CO)C(=O)N[C@@H](CO)C(=O)N[C@H](C(=O)N[C@@H](CC(N)=O)C(=O)N[C@H](C(=O)NCC(=O)N1CCC[C@H]1C(=O)N[C@@H](CCC(=O)O)C(=O)N[C@H](C(=O)N1CCC[C@H]1C(N)=O)[C@@H](C)O)C(C)C)[C@@H](C)O
notes: as for B1
B4 was tested, and the “Ratio hCT/hAmylin binding” value [1] was 0.4, the IC50 [2] was 1.61 nM and the IC50 [3] was 0.152 nM. For the same binder, the “Ratio rCT/rAmylin binding” value [4] was 10.6.

B5: N^ε1-[(4S)-4-carboxy-4-[[(4S)-4-carboxy-4-(19-carboxynonadecanoylamino)butanoyl]amino]butanoyl]-[Glu14,Arg17,Pro21,Pro27,Pro34,His35]-h-amylin (peptide)
peptide: K([γGlu-γGlu-C20 diacid])CNTATCATQRLAEFLRHSSPNFGAIPSSTNVGPHTY-NH2
modifications: disulfide 2-7 (inferred)
notes: as for B1
With B5 the “Ratio hCT/hAmylin binding” value [1] was 27.3, the IC50 [2] was 21 nM and the IC50 [3] was 0.288 nM. The “Ratio rCT/rAmylin binding” value [4] was 73.
